Assay results reported in patent US20230002460A1 (YUHAN, published 2023).
Where a chain is given by its changes, count along the chain named. Numbers in names are those of the source. Where two headings read alike, the source gives them in different places.

Tests used:
[1] = target: T1, GDF15 receptors GFRAL and RET, overexpressed together on HEK293 cells (UniProt Q6UXV0 19-394; P07949 29-1114, limits assumed); assay: cell-based or functional assay
[2] = target: T1, GDF15 receptors GFRAL and RET, …; assay: cell-based or functional assay; remark: listed apart in the source

T1 sequence (Q6UXV0 19-394 limits assumed, chain 1 of 2): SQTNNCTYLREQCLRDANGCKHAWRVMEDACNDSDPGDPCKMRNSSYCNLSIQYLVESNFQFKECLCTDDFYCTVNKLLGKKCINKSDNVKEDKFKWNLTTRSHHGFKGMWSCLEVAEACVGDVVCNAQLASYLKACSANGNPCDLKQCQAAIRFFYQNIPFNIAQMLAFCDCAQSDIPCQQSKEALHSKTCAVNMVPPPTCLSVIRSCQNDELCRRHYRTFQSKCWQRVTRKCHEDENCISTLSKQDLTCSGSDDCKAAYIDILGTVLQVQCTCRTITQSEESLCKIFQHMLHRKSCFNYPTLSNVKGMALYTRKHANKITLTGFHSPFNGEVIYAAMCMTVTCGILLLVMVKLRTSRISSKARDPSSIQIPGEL
T1 sequence (P07949 29-1114 limits assumed, chain 2 of 2): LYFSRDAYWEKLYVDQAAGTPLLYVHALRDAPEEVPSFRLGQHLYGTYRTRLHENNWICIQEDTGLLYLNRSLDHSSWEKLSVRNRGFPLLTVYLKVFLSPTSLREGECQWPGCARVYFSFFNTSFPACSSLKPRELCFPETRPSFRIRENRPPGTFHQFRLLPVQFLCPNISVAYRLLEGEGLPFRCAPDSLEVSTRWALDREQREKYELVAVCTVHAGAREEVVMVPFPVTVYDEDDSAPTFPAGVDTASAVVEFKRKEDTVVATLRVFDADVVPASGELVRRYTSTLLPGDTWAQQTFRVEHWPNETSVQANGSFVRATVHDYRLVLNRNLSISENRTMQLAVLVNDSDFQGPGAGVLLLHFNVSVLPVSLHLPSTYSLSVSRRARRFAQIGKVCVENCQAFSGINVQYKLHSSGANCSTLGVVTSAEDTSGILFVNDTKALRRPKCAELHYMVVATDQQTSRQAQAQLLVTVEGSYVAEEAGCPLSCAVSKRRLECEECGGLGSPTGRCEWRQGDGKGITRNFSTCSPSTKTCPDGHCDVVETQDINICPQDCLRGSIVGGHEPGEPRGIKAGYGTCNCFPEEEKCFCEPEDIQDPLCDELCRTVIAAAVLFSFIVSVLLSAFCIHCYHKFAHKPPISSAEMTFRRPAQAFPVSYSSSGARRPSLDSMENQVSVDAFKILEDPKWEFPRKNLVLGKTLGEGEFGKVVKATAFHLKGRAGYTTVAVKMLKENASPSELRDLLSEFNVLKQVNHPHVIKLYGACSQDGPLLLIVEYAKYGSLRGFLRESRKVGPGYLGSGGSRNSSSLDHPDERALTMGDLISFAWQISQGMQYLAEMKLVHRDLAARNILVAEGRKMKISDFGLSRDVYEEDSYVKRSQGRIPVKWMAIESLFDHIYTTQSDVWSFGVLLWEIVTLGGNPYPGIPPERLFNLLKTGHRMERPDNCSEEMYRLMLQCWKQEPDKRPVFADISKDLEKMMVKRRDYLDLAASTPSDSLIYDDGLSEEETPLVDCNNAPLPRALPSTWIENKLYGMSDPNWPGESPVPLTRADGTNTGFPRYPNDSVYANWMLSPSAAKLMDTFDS

B1: long-acting GDF15 fusion protein (dimer) FM11-1 + Fc_hole (ΔN3, G4N, D5S, H6T, S64R; linker GS(G4S)3) (Fc fusion)
chain 1: APEAAGGPSVFLFPPKPKDTLMISRTPEVTCVVVDVSHEDPEVKFNWYVDGVEVHNAKTKPREEQYASTYRVVSVLTVLHQDWLNGKEYKCKVSNKALPAPIEKTISKAKGQPREPQVYTLPPSREEMTKNQVSLWCLVKGFYPSDIAVEWESNGQPENNYKTTPPVLDSDGSFFLYSKLTVDKSRWQQGNVFSCSVMHEALHNHYTQKSLSLSPGKGSGGGGSGGGGSGGGGSNSTCPLGPGRCCRLHTVRASLEDLGWADWVLSPREVQVTMCIGACPSQFRAANMHAQIKTRLHRLKPDTVPAPCCVPASYNPMVLIQKTDTGVSLQTYDDLLAKDCHCI
chain 2: APEAAGGPSVFLFPPKPKDTLMISRTPEVTCVVVDVSHEDPEVKFNWYVDGVEVHNAKTKPREEQYASTYRVVSVLTVLHQDWLNGKEYKCKVSNKALPAPIEKTISKAKGQPREPQVYTLPPSREEMTKNQVSLSCAVKGFYPSDIAVEWESNGQPENNYKTTPPVLDSDGSFFLVSKLTVDKSRWQQGNVFSCSVMHEALHNHYTQKSLSLSPGK
EC50 [1]: 9.7 nM | Emax (%) [1]: 65.6%

B2: long-acting GDF15 fusion protein (dimer) FM11-6 + Fc_hole (ΔN3, G4N, D5S, H6T, S64R; linker GS(EAAAK)5) (Fc fusion)
chain 1: APEAAGGPSVFLFPPKPKDTLMISRTPEVTCVVVDVSHEDPEVKFNWYVDGVEVHNAKTKPREEQYASTYRVVSVLTVLHQDWLNGKEYKCKVSNKALPAPIEKTISKAKGQPREPQVYTLPPSREEMTKNQVSLWCLVKGFYPSDIAVEWESNGQPENNYKTTPPVLDSDGSFFLYSKLTVDKSRWQQGNVFSCSVMHEALHNHYTQKSLSLSPGKGSEAAAKEAAAKEAAAKEAAAKEAAAKNSTCPLGPGRCCRLHTVRASLEDLGWADWVLSPREVQVTMCIGACPSQFRAANMHAQIKTRLHRLKPDTVPAPCCVPASYNPMVLIQKTDTGVSLQTYDDLLAKDCHCI
chain 2: B1 chain 2
EC50 [1]: 6.8 nM | Emax (%) [1]: 80.3%

B3: long-acting GDF15 fusion protein (dimer) FM11-4 + Fc_hole (ΔN3, G4N, D5S, H6T, S64R; linker GS(EEEA)6) (Fc fusion)
chain 1: APEAAGGPSVFLFPPKPKDTLMISRTPEVTCVVVDVSHEDPEVKFNWYVDGVEVHNAKTKPREEQYASTYRVVSVLTVLHQDWLNGKEYKCKVSNKALPAPIEKTISKAKGQPREPQVYTLPPSREEMTKNQVSLWCLVKGFYPSDIAVEWESNGQPENNYKTTPPVLDSDGSFFLYSKLTVDKSRWQQGNVFSCSVMHEALHNHYTQKSLSLSPGKGSEEEAEEEAEEEAEEEAEEEAEEEANSTCPLGPGRCCRLHTVRASLEDLGWADWVLSPREVQVTMCIGACPSQFRAANMHAQIKTRLHRLKPDTVPAPCCVPASYNPMVLIQKTDTGVSLQTYDDLLAKDCHCI
chain 2: B1 chain 2
EC50 [1]: 45.4 nM | Emax (%) [1]: 105%

B4: long-acting GDF15 fusion protein (dimer) FM11-5 + Fc_hole (ΔN3, G4N, D5S, H6T, S64R; linker GSGGSS(PT)10) (Fc fusion)
chain 1: APEAAGGPSVFLFPPKPKDTLMISRTPEVTCVVVDVSHEDPEVKFNWYVDGVEVHNAKTKPREEQYASTYRVVSVLTVLHQDWLNGKEYKCKVSNKALPAPIEKTISKAKGQPREPQVYTLPPSREEMTKNQVSLWCLVKGFYPSDIAVEWESNGQPENNYKTTPPVLDSDGSFFLYSKLTVDKSRWQQGNVFSCSVMHEALHNHYTQKSLSLSPGKGSGGSSPTPTPTPTPTPTPTPTPTPTNSTCPLGPGRCCRLHTVRASLEDLGWADWVLSPREVQVTMCIGACPSQFRAANMHAQIKTRLHRLKPDTVPAPCCVPASYNPMVLIQKTDTGVSLQTYDDLLAKDCHCI
chain 2: B1 chain 2
EC50 [1]: 5.1 nM | Emax (%) [1]: 68.2%

B5: long-acting GDF15 fusion protein (dimer) FM9-1 + Fc_hole (ΔN2, S64R; linker GS(G4S)3) (Fc fusion)
chain 1: APEAAGGPSVFLFPPKPKDTLMISRTPEVTCVVVDVSHEDPEVKFNWYVDGVEVHNAKTKPREEQYASTYRVVSVLTVLHQDWLNGKEYKCKVSNKALPAPIEKTISKAKGQPREPQVYTLPPSREEMTKNQVSLWCLVKGFYPSDIAVEWESNGQPENNYKTTPPVLDSDGSFFLYSKLTVDKSRWQQGNVFSCSVMHEALHNHYTQKSLSLSPGKGSGGGGSGGGGSGGGGSNGDHCPLGPGRCCRLHTVRASLEDLGWADWVLSPREVQVTMCIGACPSQFRAANMHAQIKTRLHRLKPDTVPAPCCVPASYNPMVLIQKTDTGVSLQTYDDLLAKDCHCI
chain 2: B1 chain 2
EC50 [1]: 9 nM | Emax (%) [1]: 97.6%

B6: long-acting GDF15 fusion protein (dimer) FM11-3 + Fc_hole (ΔN3, G4N, D5S, H6T, S64R; linker GS(G4S)7) (Fc fusion)
chain 1: APEAAGGPSVFLFPPKPKDTLMISRTPEVTCVVVDVSHEDPEVKFNWYVDGVEVHNAKTKPREEQYASTYRVVSVLTVLHQDWLNGKEYKCKVSNKALPAPIEKTISKAKGQPREPQVYTLPPSREEMTKNQVSLWCLVKGFYPSDIAVEWESNGQPENNYKTTPPVLDSDGSFFLYSKLTVDKSRWQQGNVFSCSVMHEALHNHYTQKSLSLSPGKGSGGGGSGGGGSGGGGSGGGGSGGGGSGGGGSGGGGSNSTCPLGPGRCCRLHTVRASLEDLGWADWVLSPREVQVTMCIGACPSQFRAANMHAQIKTRLHRLKPDTVPAPCCVPASYNPMVLIQKTDTGVSLQTYDDLLAKDCHCI
chain 2: B1 chain 2
EC50 [1]: 7.8 nM | Emax (%) [1]: 81%

B7: long-acting GDF15 fusion protein (dimer) FM11-2 + Fc_hole (ΔN3, G4N, D5S, H6T, S64R; linker GS(G4S)5) (Fc fusion)
chain 1: APEAAGGPSVFLFPPKPKDTLMISRTPEVTCVVVDVSHEDPEVKFNWYVDGVEVHNAKTKPREEQYASTYRVVSVLTVLHQDWLNGKEYKCKVSNKALPAPIEKTISKAKGQPREPQVYTLPPSREEMTKNQVSLWCLVKGFYPSDIAVEWESNGQPENNYKTTPPVLDSDGSFFLYSKLTVDKSRWQQGNVFSCSVMHEALHNHYTQKSLSLSPGKGSGGGGSGGGGSGGGGSGGGGSGGGGSNSTCPLGPGRCCRLHTVRASLEDLGWADWVLSPREVQVTMCIGACPSQFRAANMHAQIKTRLHRLKPDTVPAPCCVPASYNPMVLIQKTDTGVSLQTYDDLLAKDCHCI
chain 2: B1 chain 2
EC50 [1]: 7.7 nM | Emax (%) [1]: 79.4%

B8: long-acting GDF15 fusion protein ΔN2, Q51H (Fc fusion)
chain 1: APALAGGPSVFLFPPKPKDTLMISRTPEVTCVVVDVSHEDPEVKFNWYVDGVEVHNAKTKPREEQYNSTYRVVSVLTVLHQDWLNGKEYKCKVSNKALPAPIEKTISKAKGQPREPQVYTLPPSREEMTKNQVSLWCLVKGFYPSDIAVEWESNGQPENNYKTTPPVLDSDGSFFLYSKLTVDKSRWQQGNVFSCSVMHEALHNHYTQKSLSLSPGKGGGGSGGGGSGGGGSGGGGSGGGGSNGDHCPLGPGRCCRLHTVRASLEDLGWADWVLSPREVQVTMCIGACPSHFRAANMHAQIKTSLHRLKPDTVPAPCCVPASYNPMVLIQKTDTGVSLQTYDDLLAKDCHCI
chain 2: not shown
EC50 [2]: 24.1 nM | Emax (%) [relative to FWT 100%] [2]: 90.8%

B9: long-acting GDF15 fusion protein ΔN2, D93L (Fc fusion)
chain 1: B8 chain 1 with H291Q, D333L
chain 2: not shown
EC50 [2]: 9 nM | Emax (%) [relative to FWT 100%] [2]: 59.1%

B10: long-acting GDF15 fusion protein ΔN2, S97Q (Fc fusion)
chain 1: B8 chain 1 with H291Q, S337Q
chain 2: not shown
EC50 [2]: 9.2 nM | Emax (%) [relative to FWT 100%] [2]: 118%

B11: long-acting GDF15 fusion protein ΔN2, D93E (Fc fusion)
chain 1: B8 chain 1 with H291Q, D333E
chain 2: not shown
EC50 [2]: 6.5 nM | Emax (%) [relative to FWT 100%] [2]: 87.6%

B12: long-acting GDF15 fusion protein ΔN2, Q90E (Fc fusion)
chain 1: B8 chain 1 with H291Q, Q330E
chain 2: not shown
EC50 [2]: 9.3 nM | Emax (%) [relative to FWT 100%] [2]: 10.5%

B13: long-acting GDF15 fusion protein ΔN2, Q60N (Fc fusion)
chain 1: B8 chain 1 with H291Q, Q300N
chain 2: not shown
EC50 [2]: 7 nM | Emax (%) [relative to FWT 100%] [2]: 43.5%

B14: long-acting GDF15 fusion protein ΔN2, S97N (Fc fusion)
chain 1: B8 chain 1 with H291Q, S337N
chain 2: not shown
EC50 [2]: 5.6 nM | Emax (%) [relative to FWT 100%] [2]: 100%

B15: long-acting GDF15 fusion protein ΔN2, W32F (Fc fusion)
chain 1: B8 chain 1 with W272F, H291Q
chain 2: not shown
EC50 [2]: 19.4 nM | Emax (%) [relative to FWT 100%] [2]: 51.3%

B16: long-acting GDF15 fusion protein ΔN2, Y101F (Fc fusion)
chain 1: B8 chain 1 with H291Q, Y341F
chain 2: not shown
EC50 [2]: 31.8 nM | Emax (%) [relative to FWT 100%] [2]: 37.5%

B17: long-acting GDF15 fusion protein ΔN2, Q51E (Fc fusion)
chain 1: B8 chain 1 with H291E
chain 2: not shown
EC50 [2]: 44.2 nM | Emax (%) [relative to FWT 100%] [2]: 41.9%

B18: long-acting GDF15 fusion protein ΔN2, T92E (Fc fusion)
chain 1: B8 chain 1 with H291Q, T332E
chain 2: not shown
EC50 [2]: 1.1 nM | Emax (%) [relative to FWT 100%] [2]: 12.3%

B19: long-acting GDF15 fusion protein ΔN2, Q90H (Fc fusion)
chain 1: B8 chain 1 with H291Q, Q330H
chain 2: not shown
EC50 [2]: 43.4 nM | Emax (%) [relative to FWT 100%] [2]: 73.2%

B20: long-acting GDF15 fusion protein ΔN2, T92S (Fc fusion)
chain 1: B8 chain 1 with H291Q, T332S
chain 2: not shown
EC50 [2]: 14.9 nM | Emax (%) [relative to FWT 100%] [2]: 112%

B21: long-acting GDF15 fusion protein ΔN2, Q51L (Fc fusion)
chain 1: B8 chain 1 with H291L
chain 2: not shown
EC50 [2]: 15.2 nM | Emax (%) [relative to FWT 100%] [2]: 88.6%

B22: long-acting GDF15 fusion protein ΔN2, Q51N (Fc fusion)
chain 1: B8 chain 1 with H291N
chain 2: not shown
EC50 [2]: 14.2 nM | Emax (%) [relative to FWT 100%] [2]: 87.8%

B23: long-acting GDF15 fusion protein ΔN2, Y101Q (Fc fusion)
chain 1: B8 chain 1 with H291Q, Y341Q
chain 2: not shown
EC50 [2]: 12.9 nM | Emax (%) [relative to FWT 100%] [2]: 16.3%

B24: long-acting GDF15 fusion protein ΔN2, Q60L (Fc fusion)
chain 1: B8 chain 1 with H291Q, Q300L
chain 2: not shown
EC50 [2]: 11.9 nM | Emax (%) [relative to FWT 100%] [2]: 96.3%

B25: long-acting GDF15 fusion protein ΔN2, S64Q (Fc fusion)
chain 1: B8 chain 1 with H291Q, S304Q
chain 2: not shown
EC50 [2]: 7.9 nM | Emax (%) [relative to FWT 100%] [2]: 100%

B26: long-acting GDF15 fusion protein ΔN2, D93N (Fc fusion)
chain 1: B8 chain 1 with H291Q, D333N
chain 2: not shown
EC50 [2]: 22.6 nM | Emax (%) [relative to FWT 100%] [2]: 99.6%

B27: long-acting GDF15 fusion protein (dimer) FM5 + Fc_hole (ΔN2, S64K) (Fc fusion)
chain 1: B8 chain 1 with H291Q, S304K
chain 2: not shown
EC50 [2]: 7.7 nM | Emax (%) [relative to FWT 100%] [2]: 147%
